Test results from patent US11708423B2, “Chimeric engulfment receptor molecules and methods of use” (CERO THERAPEUTICS, INC., priority 2017, dated 2023).
Entries after “also recorded” stand apart in the source; their conditions may differ.

What was measured:
SCC152 cells = assay: Magnitude breadth of phagocytosis by CER-transduced CD4+ T cells; assay type: cell-based, human
Method: Various CER-modified CD4+ T cells were also evaluated for breadth of response to determine whether a particular CER confers a broad phagocytic response of low magnitude (e.g., 10% engulfment in 90% of cells) or a less frequent but strong phagocytic response (e.g., 90% engulfment in 10% of cells) in the host cells. CD8+ T cells were transduced with HPV16 E7 specific TCR as described in Example 5. CD4+ T cells were transduced with lentiviral vectors comprising a CER21, CER27, CER104, CER116, or CER117 nucleic acid. Mock-transduced (vector alone) CD4+ T cell were used as control. CD4+/CER+ and CD8+/E7 TCR+ T cells were stained with CELLTRACE violet. […] HPV16 E7 TCR transduced CD8+ T cells and selected CER transduced CD4+ T cells were mixed at a 1:1 ratio and co-cultured with SCC152 cells at a 1:1 ratio for 8 hours. Phagocytosis of target SCC152 cells by CER-transduced CD4+ T cells was analyzed by fluorescence microscopy. […] The horizontal axis represents the % area of CER-transduced CD4+ T cells having engulfment or % area of […]. This measure was rarely above 40% across CER types tested. The vertical axis represents the proportion of CER-transduced CD4+ T cells that were phagocytic. For CER104, about 20% of CER104-transduced CD4+ T cells have more than 10% engulfment. For CER117-transduced CD4+ T cells, less than 10% have more than 10% engulfment.

human primary B cells = assay: Gene expression profile (activation state) of CER21+ B cells; assay type: cell-based; conditions: CD40, CD40L, RANTES, CXCL10, CXCL11, LTα, TNFa
From the text: To evaluate the activation state of CER21+ human primary B cells, gene expression profiles were examined from transduced B cell populations.

H1975 NSCLC cells = assay: LDH-based cytotoxicity, H1975 cells, 18 hours co-culture; assay type: cell-based; conditions: Osimeritinib 0, 500, 1000 nM, E:T 2:1 or 5:1
Method: H1975 NSCLC cells were co-cultured with CER123- or CER126-expressing CD4+ T cells with increasing concentrations of Osimeritnib (0, 500 nM, or 1000 nM). Mock-transduced (vector only) T cells were used as control. Assays were performed using CER modified T cells purified by FACS using an EGFR specific antibody 7 days after activation using CD3 & CD28 microbeads. CER modified T cells and H1975 cells were co-cultured at effector:target cell ratios of 2:1 or 5:1. After 18 hours of co-culture, bulk supernatants were evaluated using LDH-based cytotoxicity assay.

[1] = test system: HCC159 lung adenocarcinoma cells; assay: MTT viability of HCC159 cells co-cultured with CER T cells and Osimeritinib; assay type: cell-based; conditions: Osimeritinib 0.1, 1, 5 nM; E:T 1:1, 2:1, 5:1; 48 hours
Method: HCC159 lung adenocarcinoma cells harboring an EGFR mutation were co-cultured with CER123- or CER126-expressing CD4+ T cells with increasing concentrations of Osimeritinib (0.1 nM, 1 nM, or 5 nM). Mock transduced (vector only) T cells were used as control. After 48 hours of co-culture at effector: target cell ratios at 1:1, 2:1 or 5:1 in the presence of drug, T cells were washed away, and the number of viable HCC159 cells was quantified using a calorimetric MTT assay. Cell viability experiments were performed in triplicates and presented as % of control with (FIG. 48A).

[2] = test system: HCC159 lung adenocarcinoma cells; assay: LDH-based cytotoxicity, HCC159 cells; assay type: cell-based; conditions: Osimeritinib 0, 1, 5 nM; E:T 2:1 or 5:1; 18 hours
Method: HCC159 lung adenocarcinoma cells were co-cultured with CER123- or CER126-expressing CD4+ T cells with increasing concentrations of Osimeritnib (0, 1 nM, 5 nM). After 18 hours of co-culture, bulk supernatants were evaluated using a LDH-based cytotoxicity assay. T cells assays were performed using purified, EGFR^+ (transduction marker), CER modified T cells 7 days after activation using CD3 & CD28 microbeads at effector:target cell ratios of 2:1 or 5:1. Control “Mock” T cells were transduced with vector alone. […] Bulk supernatants were also analyzed after 18 hours of co-culture for Interferon Gamma (IFNγ) secretion (FIG. 50). Control “Mock” T cells were transduced with vector alone.

ALK+A549 cells = assay: LDH cytotoxicity assay, A549 ALK+ cells, 18 hours co-culture; assay type: cell-based
Method: An ELM4-ALK translocation was introduced into A549 cells. […] Assays were performed with purified tEGFR^+ (transduction marker), CER-expressing T cells 7 days after activation using CD3 & CD28 microbeads at effector: target cell ratios of 2:1 or 5:1. Mock T cells were transduced with vector alone and used as control. After 18 hours of co-culture, bulk supernatants were evaluated using a LDH cytoxicity assay indicating cell killing (FIGS. 65A-B).

B1: CER104: Tim4 binding and transmembrane domains, TLR8 primary and DAP12 secondary signaling domains; SEQ ID NO:133 (protein)
chain: MSKGLLLLWLVTELWWLYLTPAASEDTIIGFLGQPVTLPCHYLSWSQSRNSMCWGKGSCPNSKCNAELLRTDGTRIISRKSTKYTLLGKVQFGEVSLTISNTNRGDSGVYCCRIEVPGWFNDVKKNVRLELRRATTTKKPTTTTRPTTTPYVTTTTPELLPTTVMTTSVLPTTTPPQTLATTAFSTAVTTCPSTTPGSFSQETTKGSAFTTESETLPASNHSQRSMMTISTDIAVLRPTGSNPGILPSTSQLTTQKTTLTTSESLQKTTKSHQINSRQTILIIACCVGFVLMVLLFLAFLHHLFYWDVWFIYNVCLAKVKGYRSLSTSQTFYDAYISYDTKDASVTDWVINELRYHLEESRDKNVLLCLEERDWDPGLAIIDNLMQSINQSKKTVFVLTKKYAKSWNFKTAFYLALQRLMDENMDVIIFILLEPVLQHSQYLRLRQRICKSSILQWPDNPKAEGLFWQTLRNVVLTENDSRYNNMYVDSIKQYYFLGRLVPRGRGAAEAATRKQRITETESPYQELQGQRSDVYSDLNTQRPYYK
modifications: CER104 protein
proportion of CER-transduced CD4+ T cells that have more than 10% engulfment (SCC152 cells; 8 hours co-culture with CD8/E7 TCR T cells and SCC152 cells): about 20%

B2: CER21: Tim4 binding and transmembrane domains, TLR8 signaling domain; SEQ ID NO:88 (protein)
chain: MSKGLLLLWLVTELWWLYLTPAASEDTIIGFLGQPVTLPCHYLSWSQSRNSMCWGKGSCPNSKCNAELLRTDGTRIISRKSTKYTLLGKVQFGEVSLTISNTNRGDSGVYCCRIEVPGWFNDVKKNVRLELRRATTTKKPTTTTRPTTTPYVTTTTPELLPTTVMTTSVLPTTTPPQTLATTAFSTAVTTCPSTTPGSFSQETTKGSAFTTESETLPASNHSQRSMMTISTDIAVLRPTGSNPGILPSTSQLTTQKTTLTTSESLQKTTKSHQINSRQTILIIACCVGFVLMVLLFLAFLHHLFYWDVWFIYNVCLAKVKGYRSLSTSQTFYDAYISYDTKDASVTDWVINELRYHLEESRDKNVLLCLEERDWDPGLAIIDNLMQSINQSKKTVFVLTKKYAKSWNFKTAFYLALQRLMDENMDVIIFILLEPVLQHSQYLRLRQRICKSSILQWPDNPKAEGLFWQTLRNVVLTENDSRYNNMYVDSIKQY
modifications: CER21 chimeric engulfment receptor
activation state (B cell mRNA levels compared to transduced control B cells) (human primary B cells): promoted B cell activation molecules and survival factors

B3: CER126: Tim4 binding and transmembrane domains, TLR2 primary and TRAF2 secondary signaling domains; SEQ ID NO:174 (protein)
chain: MSKGLLLLWLVTELWWLYLTPAASEDTIIGFLGQPVTLPCHYLSWSQSRNSMCWGKGSCPNSKCNAELLRTDGTRIISRKSTKYTLLGKVQFGEVSLTISNTNRGDSGVYCCRIEVPGWFNDVKKNVRLELRRATTTKKPTTTTRPTTTPYVTTTTPELLPTTVMTTSVLPTTTPPQTLATTAFSTAVTTCPSTTPGSFSQETTKGSAFTTESETLPASNHSQRSMMTISTDIAVLRPTGSNPGILPSTSQLTTQKTTLTTSESLQKTTKSHQINSRQTILIIACCVGFVLMVLLFLAFLHRFHGLWYMKMMWAWLQAKRKPRKAPSRNICYDAFVSYSERDAYWVENLMVQELENFNPPFKLCLHKRDFIPGKWIIDNIIDSIEKSHKTVFVLSENFVKSEWCKYELDFSHFRLFDENNDAAILILLEPIEKKAIPQRFCKLRKIMNTKTYLEWPMDEAQREGFWVNLRAAIKSMAAASVTPPGSLELLQPGFSKTLLGTKLEAKYLCSACRNVLRRPFQAQCGHRYCSFCLASILSSGPQNCAACVHEGIYEEGISILESSSAFPDNAARREVESLPAVCPSDGCTWKGTLKEYESCHEGRCPLMLTECPACKGLVRLGEKERHLEHECPERSLSCRHCRAPCCGADVKAHHEVCPKFPLTCDGCGKKKIPREKFQDHVKTCGKCRVPCRFHAIGCLETVEGEKQQEHEVQWLREHLAMLLSSVLEAKPLLGDQSHAGSELLQRCESLEKKTATFENIVCVLNREVERVAMTAEAC
modifications: CER126 protein
cell killing of H1975 cells (LDH) (H1975 NSCLC cells): inducible cell killing responses | growth/viability of HCC159 cells (MTT) [1]: dose-dependent target cell killing responses; also recorded: synergistically suppressed | cell killing of HCC159 cells (LDH) [2]: inducible cell killing responses | micrograph images of A549 co-culture (ALK+A549 cells; Crizotinib 3700 nM): near complete loss of Crizotinib-treated A549 cells | cell killing of A549 ALK+ cells (LDH) (ALK+A549 cells; Crizotinib or Alectinib 0, 2500, 3700 nM, E:T 2:1 or 5:1, 18 hours): dose-dependent inducible cytokine secretion and cell killing responses | engulfment of SCC152 target cells (fluorescent micrograph) (SCC152 cells; CD4+ T cells): SCC152 target cells engulfed
